T1: claudin-1 (Mus musculus, UniProt O88551)
T1 sequence (O88551 1-211): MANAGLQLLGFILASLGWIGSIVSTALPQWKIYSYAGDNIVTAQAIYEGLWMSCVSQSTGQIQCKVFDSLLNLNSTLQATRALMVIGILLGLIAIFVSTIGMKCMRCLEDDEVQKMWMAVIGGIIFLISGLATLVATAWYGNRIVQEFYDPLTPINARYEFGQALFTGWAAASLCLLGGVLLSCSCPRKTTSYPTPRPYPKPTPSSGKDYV

T2: recombinant human claudin-1 (human, UniProt O95832 1-211, limits assumed)
T2 construct: Expressed and purified as in Vecchio & Stroud 2019, in beta-DDM detergent; also called CLDN1
T2 sequence: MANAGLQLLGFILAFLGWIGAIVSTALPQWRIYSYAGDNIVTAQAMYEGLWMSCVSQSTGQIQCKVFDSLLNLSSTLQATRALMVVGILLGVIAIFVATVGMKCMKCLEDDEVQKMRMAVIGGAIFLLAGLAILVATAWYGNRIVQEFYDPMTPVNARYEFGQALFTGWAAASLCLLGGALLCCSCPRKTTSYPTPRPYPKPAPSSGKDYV

T3: human claudin-3 (human, UniProt O15551 1-220, limits assumed)
T3 sequence (looked up): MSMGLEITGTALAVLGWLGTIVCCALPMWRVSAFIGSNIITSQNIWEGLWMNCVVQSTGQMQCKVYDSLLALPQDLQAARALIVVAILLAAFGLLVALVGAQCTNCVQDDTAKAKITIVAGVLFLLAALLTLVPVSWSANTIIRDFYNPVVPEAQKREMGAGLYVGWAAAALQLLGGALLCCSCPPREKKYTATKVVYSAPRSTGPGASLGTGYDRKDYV


Assays:
[1] = target: T1, claudin-1; details: corpus callosum and hippocampus, in vivo
Procedure: A fluorescence microscope (LSM800, Zeiss) was used to take the fluorescence image of mice brain. Mice were transcardially perfused after 2 h of MRI with 4% paraformaldehyde (PFA) in Dulbecco's phosphate-buffered saline (DPBS, Thermo Fisher Scientific, Waltham, MA). Brain tissue was collected, trimmed, and fixed in 4% buffered PFA for 24 h. The brains were moved into 30% sucrose in DPBS for 3 d at 4° C. for cryoprotection. The brains were then embedded in 2.6% carboxymethylcellulose (CMC, C4888, Sigma-Aldrich, St. Louis, MO), frozen on dry ice, and sliced coronally at a 15 μm thickness with cryotome (Leica Biosystems, Wetzlar, Germany). The brain slices were laid on poly-L-lysine coated microscope slides (Thermo Fisher Scientific) and dried overnight at RT. […]
Images were acquired with confocal microscopy at 40× objective lens magnification. Quantitative image analysis was performed with ImageJ software on at least two randomly selected viewing fields for each region for each mouse. The fluorescence signal of claudin-1 was thresholded to only integrate the density above 20 to remove the background fluorescence. Gamma correction was performed only on the representative images after the immunofluorescence quantification with shadows value of 0, midtones value of 0.26, and highlights value of 100 for all CMYK channels with Adobe Photoshop.

[2] = NP characterization: TEM particle diameter, DLS hydrodynamic size, zeta potential; assay type: physicochemical
Procedure: A high voltage transmission electron microscope (TEM) (Tecnai Osiris™, 200 kV) was used to measure particle diameters of PEG diacid coated Gd NPs. A copper grid (PELCO mesh size 400, TED PELLA, INC.) covered with an amorphous carbon membrane was placed onto a filter paper. Then, a sample solution diluted in triply distilled water was dropped over the copper grid by using a micropipette (Eppendorf, 2-20 μL). Dynamic light scattering (DLS) studies of the NPs were conducted using a Malvern Instruments Zetasizer Nano series instrument. Solutions of the NPs were prepared in DPBS (pH 7.4) at a concentration of 0.05 mM. The resulting solutions were filtered with 0.22 μm filters before the measurement. The NP concentration was determined by using an inductively coupled plasma mass spectrometer (ICPMS) (Agilent 7500 cx). To determine this, ˜0.5 mL of the NP solution was taken out and treated with HNO3 to dissolve nanoparticles in the solution completely. A Fourier transform-infrared (FT-IR) (Nicolet AVATAR 380 FT-IR) was used to verify the surface coating. To record the FT-IR absorption spectrum (400-4000 cm^−1), the powder sample was prepared. Peptide attachment to NPs was confirmed using BCA assay. Attaching efficiency was confirmed using the equation, Conjugation Efficiency of peptide (%)=Amount of peptide in NPs/Initial amount of peptide×100.

[3] = target: T2, recombinant human claudin-1; assay: microscale thermophoresis, AF647 labeled C1C2-NP fixed at 70 nM, human claudin-1 titrated 2.2-73,500 nM
Procedure: For the binding experiments, the concentration of human claudin-1 was varied from 2.2-73,500 nM and the AF647-labeled C1C2-NP was fixed at 70 nM, while the AF647 labeled NPs and AF647 labeled C1C2 peptide were fixed at 1 and 0.3 μM, respectively. Binding of the AF647 labeled C1C2-NP to human claudin-3, -4, and -9 were tested using 0.4-14000 nM, 0.8-28000 nM, and 0.6-20000 nM, respectively; with the AF647 labeled C1C2-NP fixed at 70 nM. This assay buffer was similar, except β-DDM was replaced with 0.1% n-Undecyl-β-D-Maltopyranoside (beta-UDM). In order to check non-specific binding of β-DDM micelles to the AF647 labeled C1C2-NP, the concentration of beta-DDM was varied from 0.03-900 μM and the concentration of the AF647-labeled C1C2-NP was fixed at 1 μM. A similar experiment was performed wherein the concentration of beta-UDM was varied from 0.3-10,000 μM and the concentration of AF647-labeled control NP was fixed at 1 μM. […] All experiments were conducted at 23° C. using the nano-red channel of the Monolith instrument and the data were analyzed by using either Monolith analysis software or Graph Pad Prism, version 9 (Graph Pad Software, San Diego, California).
To assess the binding affinity of C1C2-NPs to human claudin-1, C1C2-NPs were labeled with AF647 and binding to recombinant human claudin-1 quantified using MST. […]

[4] = target: T3, human claudin-3; assay: MST, sigmoidal dose-response fit (GraphPad Prism) of the FIG. 10A data; fit without amplitude, confidence interval undefined [panel B]
Procedure: FIG. 10A is a graph showing binding of human claudins 3, 4 and 9 to C1C2-NPs using microscale thermophoresis. […] FIG. 10C is a graph showing the binding of human claudins 4 and 9 to control NPs monitored using microscale thermophoresis. […] Data fitting for human claudins 3, 4 and 9 were performed using Graph Pad Prism.
Human claudin-1 was expressed and purified as reported previously (Vecchio & Stroud, 2019, PNAS USA, 116:17817-24). MST measurements were performed using a Monolith instrument (NanoTemper Technologies). For experiments with human claudin-1, the assay buffer contained 10 mM Tris HCl, pH 8.0, 100 mM NaCl, 4% glycerol, and 0.04% n-Dodecyl-β-D-Maltopyranoside (β-DDM). NPs and peptides were labeled with AF647 prior to MST analysis as described above. For the binding experiments, the concentration of human claudin-1 was varied from 2.2-73,500 nM and the AF647-labeled C1C2-NP was fixed at 70 nM, while the AF647 labeled NPs and AF647 labeled C1C2 peptide were fixed at 1 and 0.3 μM, respectively. Binding of the AF647 labeled C1C2-NP to human claudin-3, -4, and -9 were tested using 0.4-14000 nM, 0.8-28000 nM, and 0.6-20000 nM, respectively; with the AF647 labeled C1C2-NP fixed at 70 nM. This assay buffer was similar, except β-DDM was replaced with 0.1% n-Undecyl-β-D-Maltopyranoside (beta-UDM).

Molecule | Localization relative to claudin-1 immunofluorescence staining [1] | Zeta Potential, mV (with NPs) [2] | Hydrodynamic size (nm) ([2]; DLS, DPBS pH 7.4) | Kd [3] | LogEC50 [4]
C1C2-NP: PEG diacid coated ultrasmall Gd NP conjugated with C1C2 peptide SSVSQSTGQIQSKVDSLLNLNSTQATR (SEQ ID NO: 6); claudin-1 targeted (Ac-SSVSQSTGQIQSKVDSLLNLNSTQATR-NH2; also: conjugated to PEG diacid coated ultrasmall Gd nanoparticle) | co-localize | 7.81 ± 0.38 mV | 14.5 ± 0.13 nm |  | 
Ac-SSVSQSTGQIQSKVDSLLNLNSTQATR-NH2 (not fully specified; also: conjugated by EDC-NHS chemistry to PEG diacid on Gd oxide nanoparticle surface (19 peptides per 3.5 nm particle), The protein part is the C1C2 peptide; the core is not a protein; also called C1C2-NPs; C1C2 NPs) [C1C2-NP (C1C2 peptide conjugated to PEG diacid coated ultrasmall Gd nanoparticles)] |  |  |  | 21 µM | -7.05

— US20240350646A1, “METHODS AND COMPOSITIONS FOR DELIVERY TO AND ACROSS THE BLOOD BRAIN BARRIER” (NUtech Ventures, priority 2021, published 2024)
